Experimental data: article PMC3068846

Target: DivL DHp and CA domains fused to YFP (Caulobacter crescentus)
Test: FRET or BRET

Sequence of DivL DHp and CA domains fused to YFP (Caulobacter crescentus) (Q9RQQ9 547-758): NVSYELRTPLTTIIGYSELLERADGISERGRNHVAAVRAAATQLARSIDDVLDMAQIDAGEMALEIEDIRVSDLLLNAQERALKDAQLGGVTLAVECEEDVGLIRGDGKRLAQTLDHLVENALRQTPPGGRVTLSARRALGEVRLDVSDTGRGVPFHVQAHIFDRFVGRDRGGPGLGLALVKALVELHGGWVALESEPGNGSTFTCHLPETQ

Substance: DivK~P-CFP (DivK-CFP phosphorylated by DivJ and ATP) (natural protein)
- FRET efficiency relative to the longer version of DivL: 85%
